Consider one molecule from publication PMC8263589, “The role of membrane destabilisation and protein dynamics in BAM catalysed OMP folding” (Nature Communications, 2021).

The target in assay [1] is WT BAM complex (BamABCDE-His6) (Escherichia coli K-12). Put plainly: cryo-EM structure; purified BAM (WT or BAM-LL) mixed with Fab1 in DDM micelles, pH 8.0, 150 mM NaCl; WT BAM with a 2-fold molar excess of Fab1, complex isolated on Superdex 200; BAM-LL and Fab1 mixed 1:1. The note with it: both partners purified.
Assay [2] deals with BamA, as the subunit of WT BAM (Escherichia coli K-12). The assay is described as above. The note with it: both partners purified.

B1: Fab1, anti-BamA monoclonal antibody Fab fragment (Fab, V domains shown)
VH: EVQLVESGGGLVQPGRSLKLSCVASRFTFSNYGMNWIRQTPGKGLEWVAYIGSTSSHIYYAETVKGRFTISRDNAKNTLYLQMTGLRSEDTALYYCVGHVRKLGAFFDYWGQGAMVTVSS
VL: DIQMTQSPASLSASLGETVTIECRASEDIHSRLAWYQQKPGKSPQLLIYNANSLHTGVPSRFSGSGSGTQFSLKINSLQSEDVASYFCLQYYNYPPYTFGAGAKLELR
notes: heavy chain of Fab1 in the crystal structure deposited here (PDB 7BM5); light chain of Fab1 in the crystal structure deposited here (PDB 7BM5); also called bactericidal Fab fragment; Fab of MAB1; source: E. coli, purified (Protein G, SP Sepharose, Superdex 75)
For B1, the binding result in assay [1] and in assay [2] was “binds” each time.
